From patent US20110177578, “APTAMER AGAINST IL-17 AND USE THEREOF” (The University of Tokyo, published 2011) come the findings set out here.

Numbering of substitutions follows the chain as printed.

T1: IL-17 (IL-17A) (Homo sapiens, UniProt Q16552 Q16552:24-155)
T1 sequence: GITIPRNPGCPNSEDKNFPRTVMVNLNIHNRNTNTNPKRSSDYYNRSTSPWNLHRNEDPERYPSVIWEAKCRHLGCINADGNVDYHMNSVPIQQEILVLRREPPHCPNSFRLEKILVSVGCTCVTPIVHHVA

T2: IL-17F (Homo sapiens, UniProt Q96PD4 Q96PD4:31-163)
T2 sequence: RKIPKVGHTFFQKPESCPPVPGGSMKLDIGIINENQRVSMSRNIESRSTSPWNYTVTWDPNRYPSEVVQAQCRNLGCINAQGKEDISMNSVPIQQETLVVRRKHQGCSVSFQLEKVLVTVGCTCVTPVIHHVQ

B1: SEQ 42 (ssRNA)
RNA: GUGCACAUGGGAUAGCGAAGUCAUUGAGCGCCUAUGCGUGC
modifications: 2'-F pyrimidines
B2: SEQ 41 (ssRNA)
RNA: GGGGAUAGCGAAGUCAUUGAGCGCCCC
modifications: 2'-F pyrimidines
B3: SEQ 39 (ssRNA)
RNA: GCAGAGGAUAGCGAAGUCAUUGAGCGCCUAUGC
modifications: 2'-F pyrimidines
B4: SEQ 44 (ssRNA)
RNA: GGUCUAGCCGGAGGAGUCAGUAAUCGGUAGACC
modifications: 2'-F pyrimidines
B5: SEQ 40 (ssRNA)
RNA: GGAUAGCGAAGUCAUUGAGCGCC
modifications: 2'-F pyrimidines
B6: SEQ 43 (ssRNA)
RNA: AGAGGUCAGAUGGUCUAGCCGGAGGAGUCAGUAAUCGGUAGACCUAUGCGUG
modifications: 2'-F pyrimidines
B7: SEQ 37 (ssRNA)
RNA: CAGAUGGGCAGCAGAGGAUAGCGAAGUCAUUGAGCGCCUAUGCGUGCUAGUGUG
modifications: 2'-F pyrimidines
B8: SEQ 38 (ssRNA)
RNA: GCAGCAGAGGAUAGCGAAGUCAUUGAGCGCCUAUGCGUGC
modifications: 2'-F pyrimidines
B9: SEQ 1 (Apt1) (ssRNA)
RNA: GGGAGCAGGAGAGAGGUCAGAUGGGCAGCAGAGGAUAGCGAAGUCAUUGAGCGCCUAUGCGUGCUAGUGUGA
modifications: 2'-F pyrimidines
B10: SEQ 48 (ssRNA)
RNA: GGAUAGCGAAGACAUUGAGCGCC
modifications: 2'-F pyrimidines; 2'-OMe at a12
B11: SEQ 40-3 (ssRNA)
RNA: GGAUAGCGAAGUCAUUGAGCGCC
modifications: 2'-F pyrimidines except c7; 2'-OMe at c7
B12: SEQ 40-4 (ssRNA)
RNA: GGAUAGCGAAGUCAUUGAGCGCC
modifications: 2'-F pyrimidines; 2'-OMe at g19
B13: SEQ 47 (ssRNA)
RNA: GGAUAGAGAAGUCAUUGAGCGCC
modifications: 2'-F pyrimidines; 2'-OMe at a7
B14: SEQ 45 (ssRNA)
RNA: GGAUAGCGAAGUCAUCGAGCGCC
modifications: 2'-F pyrimidines
B15: SEQ 46 (ssRNA)
RNA: GGAUAGCGAAGUCAUUGAGCACC
modifications: 2'-F pyrimidines
B16: SEQ 40-2 (ssRNA)
RNA: GGAUAGCGAAGUCAUUGAGCGCC
modifications: 2'-F pyrimidines; 2'-OMe at a3
B17: SEQ 32 (ssRNA)
RNA: B9 RNA with A30G, A37G, A50G, A66G, U70G, G71A, A72G
modifications: 2'-F pyrimidines
B18: SEQ 5 (ssRNA)
RNA: B9 RNA with G24A, A27G, G28C, G31U, A35G, C39A, U44C, G51U, G53A
modifications: 2'-F pyrimidines
B19: SEQ 2 (ssRNA)
RNA: B9 RNA with G25U, C26G, A27C, G28A, G31U, A32G
modifications: 2'-F pyrimidines
B20: SEQ 33 (ssRNA)
RNA: GGGAGCAGGAGAGAGGUCAGAUGGAGGAGCCAGUGAUCGUUGACCUCAAUGCACCUAUGCGUGCUAGUGUGA
modifications: 2'-F pyrimidines
B21: SEQ 35 (ssRNA)
RNA: B20 RNA with C30G, G35A, C45U, U46G, C47G, A48U, U50A, G51A, A53C
modifications: 2'-F pyrimidines
B22: SEQ 34 (ssRNA)
RNA: B20 RNA with C30A, U46C, C47A, A48C, A49C, U50G, C52G, A53U
modifications: 2'-F pyrimidines
B23: SEQ 3 (ssRNA)
RNA: GGGAGCAGGAGAGAGGUCAGAUGUGUAAGGUCGGAAGUCAUGAACGGCCCGGACCUAUGCGUGCUAGUGUGA
modifications: 2'-F pyrimidines
B24: SEQ 4 (ssRNA)
RNA: GGGAGCAGGAGAGAGGUCAGAUGCUAUAGCGAAGUCAUUGAGCGAGACAUAGGCCUAUGCGUGCUAGUGUGA
modifications: 2'-F pyrimidines
B25: SEQ 29 (ssRNA)
RNA: B24 RNA with U25G, A45C, A47U, C48G, A49U, U50C, A51C, G52A, G53A
modifications: 2'-F pyrimidines
B26: SEQ 30 (ssRNA)
RNA: GGGAGCAGGAGAGAGGUCAGAUGGUCUAGCCGGAGGAGUCAGUAAUCGGUAGACCUAUGCGUGCUAGUGUGA
modifications: 2'-F pyrimidines
B27: SEQ 6 (ssRNA)
RNA: GGGAGCAGGAGAGAGGUCAGAUGGUGAUGCAUAGGAGUGGAGUCAGAUAUAGCCCUAUGCGUGCUAGUGUGA
modifications: 2'-F pyrimidines
B28: SEQ 31 (ssRNA)
RNA: GGGAGCAGGAGAGAGGUCAGAUGGAAGUGGAGUCAGAUAUAGCAAUAUUAUGACCUAUGCGUGCUAGUGUGA
modifications: 2'-F pyrimidines
B29: SEQ 36 (ssRNA)
RNA: GGGAGCAGGAGAGAGGUCAGAUGUAUAGCGAAGUCAUUGAGCGACAAAGCCGGCCUAUGCGUGCUAGUGUGA
modifications: 2'-F pyrimidines

In the first series the target is T1, IL-17 (IL-17A). Kind of series: SPR; same as Example 1. The settings on record: tags: Peprotech; chain copies: 2. A general note: Surface plasmon resonance follows binding to a sensor surface in real time, without labels.
B1: the binding result is recorded as “binds”.

With B2, the binding result was “binds”.

Turning to B3, the binding result is reported as “binds”.

Turning to B4, the binding result is recorded as “binds”.

B5: the binding result was “binds”.

On to B6, for which the binding result is listed as “binds”.

For the molecule B7, the binding result is given as “binds”.

In the case of B8, the binding result is “binds”.

The next series addresses T1, IL-17 (IL-17A). Kind of series: SPR; 3' A16-tailed RNA on dT16 SA chip; solution A pH 7.6, Ca/Mg, 0.1 mg/mL tRNA. The settings on record: tags: Peprotech; chain copies: 2. As to the method:
(§1) The binding activities for IL-17 of the nucleic acids shown by SEQ ID NOS:1-6 and 29-36 were evaluated by the surface plasmon resonance method. The measurements were taken using BIAcore 2000. The SA chip was used as the sensor chip, which had streptavidin immobilized thereon. Bound thereto was about 600 RU of a 16-nucleotide Poly dT with biotin bound to the 5′ end thereof. […] 20 μl, of human IL-17 for analyte, prepared at 0.5 was injected, with the addition of 0.1 mg/mL tRNA to lessen nonspecific adsorption. Solution A was used as a running buffer. […] Here, 30N refers to the nucleic acid pool used for the first round of SELEX, comprising a 30-nucleotide random sequence. As an example, a sensorgram showing a status of the binding of the aptamer shown by SEQ ID NO:1 (Apt1) and human IL-17 is shown in FIG. 7. From the above, it was shown that the nucleic acids shown by SEQ ID NOS:1-6 and 29-36 are aptamers that bind to IL-17.
Turning to B9, the binding result is reported as “binds”.

The target in another series is T1, IL-17 (IL-17A). Kind of series: SPR. Conditions: tags: Peprotech; chain copies: 2.
B10: the binding result is recorded as “binds”.

B11: the binding result is “binds”.

As for B12, the binding result was “binds”.

Consider B13, for which the binding result was “binds”.

As for B14, the binding result is “binds”.

Take B15: the binding result is listed as “binds”.

B16: the binding result is “binds”.

For a further series, the target named is T1, IL-17 (IL-17A). Kind of series: SPR; solution A, tRNA. The settings on record: tags: Peprotech; chain copies: 2. The method, then: as §1
For the molecule B17, the binding result was “binds”.

B18: the binding result was “binds”.

Consider B19, for which the binding result is “binds”.

With B20, the binding result was “binds”.

As to B21, the binding result is recorded as “binds”.

Regarding B22, the binding result was “binds”.

With B23, the binding result is “binds”.

As for B24, the binding result was “binds”.

For B25, the binding result is recorded as “binds”.

As for B26, the binding result is given as “binds”.

Regarding B27, the binding result is “binds”.

As to B28, the binding result is on record as “binds”.

As to B29, the binding result is reported as “binds”.

The next series has as its target T2, IL-17F. Kind of series: SPR; tRNA added. Conditions: tags: R&D Systems 1335-INS/CF; chain copies: 2. The method, then: as §1
Whether the IL-17 aptamers shown by SEQ ID NOS:1-6 and 29-36 bind to IL-17F, which belongs to the same family, was determined by the surface plasmon resonance method. The amino acid sequence homology between IL-17 and IL-17F is 50%. The experiment was performed using IL-17F produced by R&D Company (1335-INS/CF), while in a state wherein tRNA was added to lessen nonspecific adsorption as described above.
Regarding B9, the binding result is “no binding”.

As for B17, the binding result is listed as “no binding”.

As for B18, the binding result is given as “no binding”.

Regarding B19, the binding result is “no binding”.

On to B20, for which the binding result is on record as “no binding”.

B21: the binding result is “no binding”.

On to B22, for which the binding result was “no binding”.

With B23, the binding result is recorded as “no binding”.

With B24, the binding result is reported as “no binding”.

As to B25, the binding result was “no binding”.

For B26, the binding result is reported as “no binding”.

Regarding B27, the binding result is given as “no binding”.

With B28, the binding result is recorded as “no binding”.

Regarding B29, the binding result was “no binding”.
